As usually defined, the stoichiometry N is a count of units in the complex or per binding partner.

The assay deals with FLAG-Pen-2 (human) (UniProt Q9NZ42). Description: STEM mass measurement.
Chain of UniProt Q9NZ42 (Q9NZ42 whole entry): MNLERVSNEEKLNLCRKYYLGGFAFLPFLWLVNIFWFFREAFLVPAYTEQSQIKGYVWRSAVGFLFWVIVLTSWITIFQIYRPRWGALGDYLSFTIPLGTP

With “Aph1α2-HA (from UniProt Q96BI3 1-265) (natural protein)”, the stoichiometry N stood at 1.

The values above are taken from publication PMC2830092.
